From patent publication US20240327534A1 (HARPOON THERAPEUTICS, published 2024)
Positions count from the first letter of the chain named.

B1: BCMA targeting trispecific protein 01B01 (other, not shown: large carriers; small tags and cut ends)
VHH: EVQLVESGGGLVQPGRSLTLSCAASTNIPSISPMGWYRQAPGKQRELVAAIHGESTLYADSVKGRFTISRDNAKNSIYLQMNSLRPEDTALYYCNKVPWGDYHPRNVAWGQGTQVTVSS
notes: trispecific
B2: BCMA targeting trispecific protein 01G06 (other, not shown: large carriers; small tags and cut ends)
VHH: B1 VHH with P29F, I31R, E54F, S55E, A108L
notes: trispecific
B3: BCMA targeting trispecific protein 01E04 (other, not shown: large carriers; small tags and cut ends)
VHH: B1 VHH with P29A, E54T, R105G, A108Y
notes: trispecific
B4: BCMA targeting trispecific protein 01C07 (other, not shown: large carriers; small tags and cut ends)
VHH: B1 VHH with P29F, S32Y, E54F, L57Y, D101S, A108Y
notes: trispecific
B5: BCMA targeting trispecific protein 01E06 (other, not shown: large carriers; small tags and cut ends)
VHH: B1 VHH with P29F, I31L, E54D, A108Y
notes: trispecific
B6: BCMA targeting trispecific protein 01F05 (other)
VHH: B1 VHH with P29F, I31S, E54F, L57W, D101R, A108Y
notes: trispecific; not shown: The C-terminal 6xHis tag is left out because it follows these missing domains
B7: BCMA targeting trispecific protein 01D04 (other)
VHH: B1 VHH with P29T, E54V, A108Q
notes: trispecific; not shown: anti-albumin domain, anti-CD3 domain and the linkers of the trispecific (TriTAC) chain; the C-terminal 6xHis tag follows these missing domains and is left out
B8: BCMA targeting trispecific protein 01G04 (other, not shown: large carriers; small tags and cut ends)
VHH: B1 VHH with P29D, E54N, N106M, A108Y
notes: trispecific
B9: BCMA targeting trispecific protein 01E05 (other)
VHH: B1 VHH with P29F, I31R, E54T, D101K, A108Y
notes: trispecific; not shown: the C-terminal 6xHis tag follows those missing domains and is left out
B10: BCMA targeting trispecific protein 01C08 (other, not shown: large carriers; small tags and cut ends)
VHH: B1 VHH with P29F, I31N, E54G, A108H
notes: trispecific
B11: BCMA targeting trispecific protein 01C06 (other, not shown: large carriers; small tags and cut ends)
VHH: B1 VHH with P29F, E54D, D101K, A108Y
notes: trispecific
B12: BCMA targeting trispecific protein 01D05 (other)
VHH: B1 VHH with P29F, I31D, E54T, A108Y
notes: as for B7
B13: BCMA targeting trispecific protein 01E07 (other)
VHH: B1 VHH with E54Q, A108Q
notes: as for B7
B14: BCMA targeting trispecific protein 01D06 (other)
VHH: B1 VHH with P29F, I31R, E54D, A108T
notes: trispecific; not shown: anti-albumin domain, anti-CD3 domain and the linkers of the trispecific (TriTAC) format
B15: BCMA targeting trispecific protein 01E10 (other)
VHH: B1 VHH with P29E, E54K, N106R, A108Y
notes: trispecific; not shown: the C-terminal 6xHis tag follows those domains and is left out
B16: BCMA targeting trispecific protein 01C10 (other, not shown: large carriers; small tags and cut ends)
VHH: B1 VHH with P29S, E54F, D101Y, A108Y
notes: trispecific
B17: BCMA targeting trispecific protein 01D07 (other, not shown: large carriers; small tags and cut ends)
VHH: B1 VHH with P29F, I31A, E54S, A108N
notes: trispecific
B18: BCMA targeting trispecific protein 01D02 (other)
VHH: B1 VHH with P29V, E54K, R105G, A108Y
notes: trispecific; not shown: the C-terminal His6 follows those missing domains and is left out
B19: BCMA targeting trispecific protein 01B09 (other, not shown: large carriers; small tags and cut ends)
VHH: B1 VHH with T26S, P29F, E54S, R105G, A108Y
notes: trispecific
B20: BCMA targeting trispecific protein 01F10 (other)
VHH: B1 VHH with T26S, P29F, A108T
notes: as for B9
B21: BCMA targeting trispecific protein 01C01 (other, not shown: large carriers; small tags and cut ends)
VHH: B1 VHH with P29V, E54H, R105G, A108Y
notes: trispecific
B22: BCMA targeting trispecific protein 01B03 (other, not shown: large carriers; small tags and cut ends)
VHH: B1 VHH with P29F, I31K, E54K, A108V
notes: trispecific
B23: BCMA targeting trispecific protein 01B04 (other)
VHH: B1 VHH with I28D, P29F, E54K, A108K
notes: as for B7
B24: BCMA targeting trispecific protein 01B06 (other)
VHH: B1 VHH with P29F, E54D, D101E, A108Y
notes: as for B9
B25: BCMA targeting trispecific protein 01G01 (other)
VHH: B1 VHH with P29V, E54D, N106R, A108Y
notes: as for B9
B26: BCMA targeting trispecific protein 01F04 (other)
VHH: B1 VHH with P29D, E54F, S55Q, R105G, A108Y
notes: as for B18
B27: BCMA targeting trispecific protein 01F12 (other)
VHH: B1 VHH with P29F, S30R, E54D, D101R, A108Y
notes: trispecific; not shown: anti-albumin domain, anti-CD3 domain and the linkers of the trispecific; the C-terminal His6 that follows them is left out
B28: BCMA targeting trispecific protein 01F09 (other)
VHH: B1 VHH with P29S, E54H, D101R, A108Y
notes: as for B27
B29: BCMA targeting trispecific protein 01B02 (other)
VHH: B1 VHH with P29T, H52S, E54F, K96E, A108Y
notes: as for B27
B30: BCMA targeting trispecific protein 01E08 (other, not shown: large carriers; small tags and cut ends)
VHH: B1 VHH with P29F, I31Q, E54D, R105G, A108C
notes: trispecific
B31: BCMA targeting trispecific protein 01B05 (other, not shown: large carriers; small tags and cut ends)
VHH: B1 VHH with P29T, E54F, S55E, R105G, A108Y
notes: trispecific
B32: BCMA targeting trispecific protein 01E03 (other, not shown: large carriers; small tags and cut ends)
VHH: B1 VHH with P29T, E54D, R105G, A108Y
notes: trispecific
B33: BCMA targeting trispecific protein 01G09 (other)
VHH: B1 VHH with P29F, S30N, E54F, L57Y, D101R, A108Y
notes: as for B27
B34: BCMA targeting trispecific protein 01D03 (other)
VHH: B1 VHH with P29F, I31N, E54D, A108R
notes: as for B14
B35: BCMA targeting trispecific protein 01D10 (other)
VHH: B1 VHH with P29F, I31A, E54S, D101R, A108Y
notes: as for B27
B36: BCMA targeting trispecific protein 01C04 (other)
VHH: B1 VHH with E54D, A108Y
notes: as for B7
B37: BCMA targeting trispecific protein 01C02 (other)
VHH: B1 VHH with P29E, E54N, D101R, A108Y
notes: as for B6
B38: BCMA targeting trispecific protein 01B12 (other, not shown: large carriers; small tags and cut ends)
VHH: B1 VHH with P29F, I31T, E54F, S55Q, A108V
notes: trispecific
B39: BCMA targeting trispecific protein 01F08 (other)
VHH: B1 VHH with P29T, I31V, E54P, R105T, A108Y
notes: as for B15
B40: BCMA targeting trispecific protein 01F02 (other)
VHH: B1 VHH with P29F, I31H, E54T, D101R, A108Y
notes: as for B27
B41: BCMA targeting trispecific protein 01C05 (other, not shown: large carriers; small tags and cut ends)
VHH: B1 VHH with P29F, I31S, E54F, S55K, L91R, R105G, A108Y
notes: trispecific
B42: BCMA targeting trispecific protein 01F03 (other)
VHH: B1 VHH with P29F, I31E, E54N, D101T, A108Y
notes: as for B15
B43: BCMA targeting trispecific protein 01B07 (other, not shown: large carriers; small tags and cut ends)
VHH: B1 VHH with P29F, I31R, E54N, D101I, A108Y
notes: trispecific
B44: BCMA targeting trispecific protein 01B08 (other, not shown: large carriers; small tags and cut ends)
VHH: B1 VHH with P29E, E54S, D101R, A108Y
notes: trispecific

biological target: T1, human BCMA on BCMA expressing cell lines (human, UniProt Q02223 1-184); test: cell-based or functional assay
T1 sequence: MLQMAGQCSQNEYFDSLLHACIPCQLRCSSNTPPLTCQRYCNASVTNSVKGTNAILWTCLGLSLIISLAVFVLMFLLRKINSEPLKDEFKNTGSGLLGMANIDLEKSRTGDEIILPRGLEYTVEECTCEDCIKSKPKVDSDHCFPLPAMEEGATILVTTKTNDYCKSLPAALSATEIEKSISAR

| Binder | TDCC EC50 (EJM cells) [nM] |
| --- | --- |
| B1 | 0.0195 |
| B2 | 0.0192 |
| B3 | 0.00267 |
| B4 | 0.0833 |
| B5 | 0.00377 |
| B6 | 0.0372 |
| B7 | 0.016 |
| B8 | 0.0241 |
| B9 | 0.0108 |
| B10 | 0.0457 |
| B11 | 0.0251 |
| B12 | 0.0166 |
| B13 | 0.0192 |
| B14 | 0.0135 |
| B15 | 0.0623 |
| B16 | 0.208 |
| B17 | 0.0196 |
| B18 | 0.00225 |
| B19 | 0.00527 |
| B20 | 0.00744 |
| B21 | 0.00133 |
| B22 | 0.0964 |

| Binder | TDCC EC50 (EJM cells) [nM] |
| --- | --- |
| B23 | 0.0161 |
| B24 | 0.00697 |
| B25 | 0.00583 |
| B26 | 0.00221 |
| B27 | 0.392 |
| B28 | 0.945 |
| B29 | 0.359 |
| B30 | 0.0015 |
| B31 | 0.00301 |
| B32 | 0.00298 |
| B33 | 0.441 |
| B34 | 0.0149 |
| B35 | 0.453 |
| B36 | 0.0175 |
| B37 | 0.0373 |
| B38 | 0.0273 |
| B39 | 0.0712 |
| B40 | 0.225 |
| B41 | 0.00307 |
| B42 | 0.0764 |
| B43 | 0.174 |
| B44 | 0.0876 |

biological target: T2, human BCMA protein (human, UniProt Q02223 1-54, limits assumed); test: affinity to human BCMA protein, method not stated
T2 sequence: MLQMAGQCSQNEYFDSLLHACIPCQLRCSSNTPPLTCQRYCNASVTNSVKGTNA

| Binder | Kd [nM] |
| --- | --- |
| B1 | 19.9 |
| B2 | 17 |
| B3 | 7.29 |
| B4 | 19.8 |
| B5 | 8.91 |
| B6 | 16.7 |
| B7 | 18.9 |
| B8 | 11.7 |
| B9 | 11.7 |
| B10 | 28.3 |
| B11 | 18.8 |
| B12 | 17.8 |
| B13 | 19.9 |
| B14 | 14.9 |
| B15 | 18.5 |
| B16 | 46.4 |
| B17 | 19.3 |
| B18 | 7.35 |
| B19 | 11.2 |
| B20 | 14.4 |
| B21 | 6.52 |
| B22 | 26.2 |

| Binder | Kd [nM] |
| --- | --- |
| B23 | 18.6 |
| B24 | 9.1 |
| B25 | 14.6 |
| B26 | 6.55 |
| B27 | 40.5 |
| B28 | 52.8 |
| B29 | 18.8 |
| B30 | 5.56 |
| B31 | 6.52 |
| B32 | 6.36 |
| B33 | 87.8 |
| B34 | 20.9 |
| B35 | 53.9 |
| B36 | 21.6 |
| B37 | 20 |
| B38 | 20.7 |
| B39 | 21.4 |
| B40 | 41.3 |
| B41 | 6.09 |
| B42 | 15 |
| B43 | 43.9 |
| B44 | 25.6 |
